Assay results published in FireProtDB (doi:10.1126/science.aai7825).

Conditions: Escherichia coli (strain K12); pH 7.5; Thermal; Intensity; HEPES 20mM; transition: 2; whole UniProt chain shown

Protein	Tm [°C]
Pyruvate formate-lyase 1-activating enzyme wild type, P0A9N4 (protein) MSVIGRIHSFESCGTVDGPGIRFITFFQGCLMRCLYCHNRDTWDTHGGKEVTVEDLMKEVVTYRHFMNASGGGVTASGGEAILQAEFVRDWFRACKKEGIHTCLDTNGFVRRYDPVIDELLEVTDLVMLDLKQMNDEIHQNLVGVSNHRTLEFAKYLANKNVKVWIRYVVVPGWSDDDDSAHRLGEFTRDMGNVEKIELLPYHELGKHKWVAMGEEYKLDGVKPPKKETMERVKGILEQYGHKVMF	43.4
HTH-type transcriptional repressor PurR wild type, P0ACP7 (protein) MATIKDVAKRANVSTTTVSHVINKTRFVAEETRNAVWAAIKELHYSPSAVARSLKVNHTKSIGLLATSSEAAYFAEIIEAVEKNCFQKGYTLILGNAWNNLEKQRAYLSMMAQKRVDGLLVMCSEYPEPLLAMLEEYRHIPMVVMDWGEAKADFTDAVIDNAFEGGYMAGRYLIERGHREIGVIPGPLERNTGAGRLAGFMKAMEEAMIKVPESWIVQGDFEPESGYRAMQQILSQPHRPTAVFCGGDIMAMGALCAADEMGLRVPQDVSLIGYDNVRNARYFTPALTTIHQPKDSLGETAFNMLLDRIVNKREEPQSIEVHPRLIERRSVADGPFRDYRR	45.6
Nicotinate phosphoribosyltransferase wild type, P18133 (protein) MTQFASPVLHSLLDTDAYKLHMQQAVFHHYYDVHVAAEFRCRGDDLLGIYADAIREQVQAMQHLRLQDDEYQWLSALPFFKADYLNWLREFRFNPEQVTVSNDNGKLDIRLSGPWREVILWEVPLLAVISEMVHRYRSPQADVAQALDTLESKLVDFSALTAGLDMSRFHLMDFGTRRRFSREVQETIVKRLQQESWFVGTSNYDLARRLSLTPMGTQAHEWFQAHQQISPDLANSQRAALAAWLEEYPDQLGIALTDCITMDAFLRDFGVEFASRYQGLRHDSGDPVEWGEKAIAHYEKLGIDPQSKTLVFSDNLDLRKAVELYRHFSSRVQLSFGIGTRLTCDIPQVKPLNIVIKLVECNGKPVAKLSDSPGKTICHDKAFVRALRKAFDLPHIKKAS	45.7
Ribosome-recycling factor wild type, P0A805 (protein) MISDIRKDAEVRMDKCVEAFKTQISKIRTGRASPSLLDGIVVEYYGTPTPLRQLASVTVEDSRTLKINVFDRSMSPAVEKAIMASDLGLNPNSAGSDIRVPLPPLTEERRKDLTKIVRGEAEQARVAVRNVRRDANDKVKALLKDKEISEDDDRRSQDDVQKLTDAAIKKIEAALADKEAELMQF	44.4
NADPH-dependent 7-cyano-7-deazaguanine reductase wild type, Q46920 (protein) MSSYANHQALAGLTLGKSTDYRDTYDASLLQGVPRSLNRDPLGLKADNLPFHGTDIWTLYELSWLNAKGLPQVAVGHVELDYTSVNLIESKSFKLYLNSFNQTRFNNWDEVRQTLERDLSTCAQGKISVALYRLDELEGQPIGHFNGTCIDDQDITIDNYEFTTDYLENATCGEKVVEETLVSHLLKSNCLITHQPDWGSLQIQYRGRQIDREKLLRYLVSFRHHNEFHEQCVERIFNDLLRFCQPEKLSVYARYTRRGGLDINPWRSNSDFVPSTTRLVRQ	43.9
Ribosomal protein uL3 glutamine methyltransferase wild type, P39199 (protein) MDKIFVDEAVNELQTIQDMLRWSVSRFSAANIWYGHGTDNPWDEAVQLVLPSLYLPLDIPEDMRTARLTSSEKHRIVERVIRRVNERIPVAYLTNKAWFCGHEFYVDERVLVPRSPIGELINNKFAGLISKQPQHILDMCTGSGCIAIACAYAFPDAEVDAVDISPDALAVAEQNIEEHGLIHNVIPIRSDLFRDLPKVQYDLIVTNPPYVDAEDMSDLPNEYRHEPELGLASGTDGLKLTRRILGNAADYLADDGVLICEVGNSMVHLMEQYPDVPFTWLEFDNGGDGVFMLTKEQLIAAREHFAIYKD	45.5
Transcriptional regulatory protein PhoP wild type, P23836 (protein) MRVLVVEDNALLRHHLKVQIQDAGHQVDDAEDAKEADYYLNEHIPDIAIVDLGLPDEDGLSLIRRWRSNDVSLPILVLTARESWQDKVEVLSAGADDYVTKPFHIEEVMARMQALMRRNSGLASQVISLPPFQVDLSRRELSINDEVIKLTAFEYTIMETLIRNNGKVVSKDSLMLQLYPDAELRESHTIDVLMGRLRKKIQAQYPQEVITTVRGQGYLFELR	42.6
Homoserine O-succinyltransferase wild type, P07623 (protein) MPIRVPDELPAVNFLREENVFVMTTSRASGQEIRPLKVLILNLMPKKIETENQFLRLLSNSPLQVDIQLLRIDSRESRNTPAEHLNNFYCNFEDIQDQNFDGLIVTGAPLGLVEFNDVAYWPQIKQVLEWSKDHVTSTLFVCWAVQAALNILYGIPKQTRTEKLSGVYEHHILHPHALLTRGFDDSFLAPHSRYADFPAALIRDYTDLEILAETEEGDAYLFASKDKRIAFVTGHPEYDAQTLAQEFFRDVEAGLDPDVPYNYFPHNDPQNTPRASWRSHGNLLFTNWLNYYVYQITPYDLRHMNPTLD	45.7
